Data: patent US20140329995A1

Assays:
[1] = target: Gammanorm 165 mg/ml (Octapharma), human polyclonal IgG (human); assay: column breakthrough, ligand on agarose base matrix A, ligand density 14.5 mg/ml, residence time 10.0 min, 1 mg/ml IgG
[2] = target: Gammanorm 165 mg/ml (Octapharma), human polyclonal IgG (human); assay: column breakthrough, ligand on agarose base matrix A, ligand density 14.5 mg/ml, residence time 2.4 min, 1 mg/ml IgG
[3] = target: Gammanorm 165 mg/ml (Octapharma), human polyclonal IgG (human); assay: column breakthrough, ligand on agarose base matrix A, ligand density 14.5 mg/ml, residence time 6.0 min, 1 mg/ml IgG
[4] = target: Gammanorm 165 mg/ml (Octapharma), human polyclonal IgG (human); assay: column breakthrough, ligand on agarose base matrix A, ligand density […], residence time 6.0 min, 1 mg/ml IgG
[5] = target: Gammanorm 165 mg/ml (Octapharma), human polyclonal IgG (human); assay: column breakthrough, ligand on agarose base matrix B, ligand density 11.3 mg/ml, residence time 2.4 min, 1 mg/ml IgG
[6] = target: Gammanorm 165 mg/ml (Octapharma), human polyclonal IgG (human); assay: column breakthrough, ligand on agarose base matrix A, ligand density […], residence time 10.0 min, 1 mg/ml IgG
[7] = target: Gammanorm 165 mg/ml (Octapharma), human polyclonal IgG (human); assay: column breakthrough, ligand on agarose base matrix B, ligand density 11.3 mg/ml, residence time 6.0 min, 1 mg/ml IgG
[8] = target: Gammanorm 165 mg/ml (Octapharma), human polyclonal IgG (human); assay: column breakthrough, ligand on agarose base matrix A, ligand density […], residence time 2.4 min, 1 mg/ml IgG

- Qb10 (dynamic binding capacity at 10% breakthrough) [1]: 76.7 mg/ml resin
- Qb80 (dynamic binding capacity at 80% breakthrough) [1]: 103 mg/ml resin
- Qb10 (dynamic binding capacity at 10% breakthrough) [2]: 31.2 mg/ml resin
- Qb80 (dynamic binding capacity at 80% breakthrough) [2]: 80.6 mg/ml resin
- Qb10 (dynamic binding capacity at 10% breakthrough) [3]: 61.8 mg/ml resin
- Qb80 (dynamic binding capacity at 80% breakthrough) [3]: 103 mg/ml resin
- Qb10 (dynamic binding capacity at 10% breakthrough) [4]: 53.4 mg/ml resin
- Qb80 (dynamic binding capacity at 80% breakthrough) [4]: 68.7 mg/ml resin
- Qb10 (dynamic binding capacity at 10% breakthrough) [5]: 47 mg/ml resin
- Qb80 (dynamic binding capacity at 80% breakthrough) [5]: 76.9 mg/ml resin
- Qb10 (dynamic binding capacity at 10% breakthrough) [6]: 64.5 mg/ml resin
- Qb80 (dynamic binding capacity at 80% breakthrough) [6]: 74.5 mg/ml resin
- Qb10 (dynamic binding capacity at 10% breakthrough) [7]: 68 mg/ml resin
- Qb80 (dynamic binding capacity at 80% breakthrough) [7]: 82.8 mg/ml resin
- Qb10 (dynamic binding capacity at 10% breakthrough) [8]: 35.1 mg/ml resin
- Qb80 (dynamic binding capacity at 80% breakthrough) [8]: 62.7 mg/ml resin
Substance: Mutant Z(N23T)6: ligand hexamer containing six copies of protein Z, each containing the N23T substitution (designed binder)
